Source: publication PMC10537722, “Proline Dehydrogenase and Pyrroline 5 Carboxylate Dehydrogenase from Mycobacterium tuberculosis: Evidence for Substrate Channeling” (Pathogens, 2023)

How the values were obtained:
[1] = biological target: T1, proline dehydrogenase (PruB) (Mycobacterium tuberculosis, UniProt O50444); assay: […]; added FAD makes little difference to activity; assay type: binding
T1 construct: gene Rv1188

[2] = system: CC(C)=CCC1=C(C)C(=O)c2ccccc2C1=O; assay: purified protein; conditions: FAD; pH 7.0; 25.0 °C
[3] = system: O=C(O)[C@@H]1CCCN1; assay: purified protein; conditions: FAD; pH 7.0; 25.0 °C
[4] = system: COC1=C(OC)C(=O)C(CC=C(C)C)=C(C)C1=O; assay: purified protein; conditions: FAD; pH 7.0; 25.0 °C
[5] = system: CC1=C(CCC(C)C)C(=O)c2ccccc2C1=O; assay: purified protein; conditions: FAD; pH 7.0; 25.0 °C
[6] = system: CC(C)=CCC/C(C)=C/CC1=C(C)C(=O)c2ccccc2C1=O; assay: purified protein; conditions: FAD; pH 7.0; 25.0 °C

T1 sequence (O50444 1-329): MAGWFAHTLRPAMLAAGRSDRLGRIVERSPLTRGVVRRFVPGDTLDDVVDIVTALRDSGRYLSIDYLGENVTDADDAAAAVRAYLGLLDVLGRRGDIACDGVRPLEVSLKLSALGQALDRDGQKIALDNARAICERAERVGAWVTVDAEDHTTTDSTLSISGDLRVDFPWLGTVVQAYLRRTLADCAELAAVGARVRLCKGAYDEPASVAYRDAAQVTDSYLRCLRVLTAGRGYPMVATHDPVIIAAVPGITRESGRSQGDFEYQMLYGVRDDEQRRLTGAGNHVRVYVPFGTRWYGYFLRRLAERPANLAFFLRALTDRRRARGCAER

Row | Molecule | co-purification with the enzyme (yellow protein); added FAD makes little differen [1] | Km [2] [µM] | Km [3] [µM] | kcat [3] [s⁻¹] | kcat/Km [3] [M⁻¹ s⁻¹] | Km [4] [µM] | kcat [4] [s⁻¹] | kcat/Km [4] [M⁻¹ s⁻¹] | Km [5] [µM] | Km [6] [µM]
1 | Cc1cc2nc3c(=O)[nH]c(=O)nc-3n(C[C@H](O)[C@H](O)[C@H](O)COP(=O)(O)OP(=O)(O)OC[C@H]3O[C@@H](n4cnc5c(N)ncnc54)[C@H](O)[C@@H]3O)c2cc1C [FAD] | the addition of FAD to the assay buffer resulted in little difference in activity, confirming the copurification | – | – | – | – | – | – | – | – | –
2 | proline dehydrogenase (PruB) (Mycobacterium tuberculosis H37Rv) | – | 23 ± 3.2 | 2500 ± 300 | 1.7 | 690 | 9.7 ± 1.4 | 2.3 | 230000 | 46 ± 13 | 12 ± 0.66
